According to patent US8620595B2, “Methods for determining the retention of peptides in reverse phase chromatography using linear solvent strength theory” (University of Manitoba, priority 2010, dated 2013):

test: Determination of S from retention time shift Δ relative to P3 at two gradient slopes, nano-RP-HPLC MS of spiked tryptic digest; assay type: physicochemical; conditions: experimental S value, LC-MS runs of model peptide mixture
Protocol: Proteins and protein digestion. Tryptic digests of two different protein mixtures were utilized. The “test peptide mixture” contained human proteins: albumin, transferrin, fibrinogen. The “model peptide mixture” contained bovine proteins: albumin, transferrin, fibrinogen, catalase. Equimolar mixtures of the proteins were prepared, reduced with DTT, alkylated with iodoacetamide and digested with sequencing-grade modified trypsin (Promega, Madison, Wis.). Prior to nano-LC MS/MS analysis, mixtures were diluted with buffer A (0.1% formic acid in water) and spiked with the 6 standard peptides P1-P6^24 for test mixture and the set of 11 model peptides (described elsewhere^23) for a model mixture. All dilutions were performed to provide an injection of ˜100 fmole of each component into the nanoRP-HPLC MS system.
(§1) Chromatography. All chromatographic experiments were conducted at a controlled temperature of 22-23° C. For isocratic measurement of the slope values, a micro-Agilent 1100 Series system (Agilent Technologies, Wilmington, Del.), was used with a 1 mm×100 mm 5 μm Luna C18(2) (Phenomenex, Torrance, Calif.) column and a UV detector operated at 214 nm. Both eluents A (water) and B (acetonitrile) contained 0.1% formic acid as ion-pairing modifier. Stock solutions of the 11 standard peptides (˜1 mg/ml) were prepared by dissolving each peptide in 1 ml of 0.1% FA in water or a 20% acetonitrile solution. Ten microliters of sample was injected. Individual peptides were diluted to provide ˜0.5-1 μg injection of each component using a 10 μl loop. The dead volume of the column and connecting tubings was determined by injecting a non-retained compound (water) and measuring the elution time of the negative peak at a 150 μL/min flow rate. Retention factors for isocratic elution were calculated using the formula: k=(tR−t0)/t0c; where tR is the retention time, t0 is the system (column and tubings) dead time, and t0c is the column dead time. Additional details of measuring S-values via constructing log k vs. φ plots are provided elsewhere.^24 The nano-LC MS/MS experiments were conducted using splitless Tempo LC system (Eksigent, Dublin, Calif.) with 20 μL sample injection via a 300 μm×5 mm PepMap100 (Dionex, Sunnyvale, Calif.) trap-column and a 100 μm×200 mm analytical column packed with 5 μm Luna C18(2) (Phenomenex, Torrance, Calif.). Tryptic digests of the mixtures were spiked with calibrating peptides (see Table 1) as described above, injected on the trap-column using buffer A as a carrier and separated using 0.1875, 0.375 and 0.75 percent acetonitrile per minute linear gradients starting from 0.5% acetonitrile at 500 nL/min flow rate. The composition of both eluents A and B was identical to one described above for normal-flow system. Gradient programs consisted of a 0.5-40% linear increase of buffer B in 213.2, 106.6 and 53.3 minutes, respectively. After each run the gradient columns were washed with 80% B for 3 minutes and equilibrated with the starting A:B ratio for 18 minutes.
Mass spectrometry. A QStar Elite mass spectrometer (Applied Biosystems, Foster City, Calif.) equipped with a MicrolonSpray II source was used in standard MS/MS information dependent acquisition (IDA) mode for LC-ESI analyses. Protein identification was performed using Protein Pilot 3.0 (Applied Biosystems, Foster City, Calif.) with a restricted database containing target protein sequences and the sequences of standard peptides. Retention times of identified species (peak maxima) were assigned manually.
These two ways of measurement have been combined to provide a highly accurate and fast way of determining S for an extensive sets of peptides (see FIG. 3). First, precise isocratic measurement of S is performed in normal flow conditions with UV detection for a set of synthetic “S-calibrating” peptides. […]

Row | Substance | Slope (experimental)
1 | VIEQVQR | 38.258
2 | VLDALDSIK | 26.128
3 | VPQVSTPTLVEVSR | 33.745
4 | VVQLEANCQEPCQDTVK | 39.579
5 | VVWCAVGPEEQK | 29.603
6 | VWPHGDYPLIPVGK | 34.183
7 | VYCDMK | 35.652
8 | WCAIGHQER | 35.992
9 | WCTISQPEWFK | 30.438
10 | WDPYK | 26.36
11 | WQWR | 22.398
12 | WYSMK | 25.257
13 | WYSMKK | 33.268
14 | YAAELHLVHWNTK | 36.188
15 | YCGVPGEYWLGNDR | 29.184
16 | YETLISTHESTIR | 36.09
17 | YICDNQDTISSK | 37.666
18 | YLTTLK | 27.604
19 | YLYEIAR | 27.362
20 | YQLSVSK | 31.531
21 | YYGYTGAFR | 29.343

same assay, conditions: experimental S, LC-MS runs of model peptide mixture, formic acid

Row | Substance | Slope (experimental)
22 | VHKECCHGDLLECADDR [fragment from bovine albumin] | 42.014
23 | VHKECCHGDLLECADDRADLAK | 44.599
24 | VLNEEQR | 40.229
25 | VTALYEGFTVQNEANK | 30.77
26 | VTGENDKYR [moderately sized, hydrophilic tryptic species of the model peptide mixture] | 49.044
27 | VVWCAVGPEEQKK | 33.2
28 | WCTISTHEANK | 37.234
29 | YNGVFQECCQAEDK | 32.73

same assay, conditions: model peptide mixture (tryptic digest of bovine proteins), 0.75 and 0.1875% acetonitrile per minute gradients, formic acid, S from Δ vs. S curve of S-calibrating peptides

Row | Substance | experimental S-value
30 | VHKECCHGDLLECADDR [fragment from bovine albumin] | ~42
31 | VTGENDKYR [moderately sized, hydrophilic tryptic species of the model peptide mixture] | 49.0

test: Isocratic elution measurement of slope S (log k vs. φ plots), RP-HPLC with UV detection; assay type: physicochemical; conditions: Luna C18(2) column, water/acetonitrile with 0.1% formic acid, 22-23° C.
Protocol: as §1
Accordingly, for the determination of S-values of the set of synthetic peptides we used an isocratic elution procedure, despite it being extremely labor intense.^23 Isocratic measurements consist of determining retention times of peptides at several constant acetonitrile concentrations and plotting experimental Eqn. 1 for each peptide.
These two ways of measurement have been combined to provide a highly accurate and fast way of determining S for an extensive sets of peptides (see FIG. 3). First, precise isocratic measurement of S is performed in normal flow conditions with UV detection for a set of synthetic “S-calibrating” peptides. Similar to the previously described peptide mixture P1-P6 designed to cover wide range of hydrophobicities, these peptides were chosen to cover wide range of S-values (Table 1). Second—a tryptic digest of the bovine proteins mixture (model mixture) is spiked with the “S-calibrating” peptides and run under two different gradient slopes in nano-flow RP-HPLC MS: 0.75 and 0.1875% acetonitrile per minute in our case. Third—retention times are assigned for all identified species. Fourth—retention time shifts in acetonitrile percentage (ACN %) units relative to P3 were determined as: Δ=(tR 0.75−tRP3 0.75)*0.75−(tR 0.1875−tRP3 0.1875)*0.1875 (3); where tR 0.75 and tRP3 0.75 are the retention times of any peptide and reference P3 at 0.75% per minute, and tR 0.1875 and tRP3 0.1875 are the retention times of any peptide and reference P3 at 0.1875% acetonitrile per minute gradient, respectively. Fifth—an experimental Δ vs. S curve was plotted for S-calibrating peptides (FIG. 3). Sixth—S values were extracted from this dependence for all peptides observed in both nano-RP-HPLC MS runs by extrapolation of experimental Δ on this plot.

Row | Substance | Slope (S in the basic LSS equation)
32 | LAGGGSASSSADAAAFR [Peptide 9, synthetic S-calibrating peptide] | 34.8
33 | LAGGGSASSSAHAAAFR [Peptide 11, synthetic S-calibrating peptide] | 44.66
34 | LASAADFR [Peptide 6, synthetic S-calibrating peptide] | 27.07
35 | LASAAHFR [Peptide 7, synthetic S-calibrating peptide] | 35.59
36 | LGGGGGGDFR [Peptide 1, synthetic S-calibrating peptide] | 28.2
37 | LLGGGGDFR [Peptide 2] | 24.76
38 | LLGGSLSSLHAAFR [Peptide 10, synthetic S-calibrating peptide] | 33.81
39 | LLLGGDFR [Peptide 3, synthetic S-calibrating peptide] | 21.46
40 | LLLLDFR [Peptide 4, synthetic S-calibrating peptide] | 21.78
41 | LLLLLDFR [Peptide 5, synthetic S-calibrating peptide] | 22.76
42 | LLSLADFG [Peptide 8, synthetic S-calibrating peptide] | 19.2

same assay, conditions: Luna C18(2) column, water/acetonitrile with 0.1% formic acid, 22-23° C., listed as P3

Row | Substance | Slope (S in the basic LSS equation)
43 | LLGGGGDFR [Peptide 2] | 24.76
